Measured values taken from article PMC10397247.
Values belong to the binder of their own block, whether it stands above or below them.

Tests used:
[1] = target: T1, 4H3057-bH; assay: two-hybrid library CCNG1;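 further: natural log of median RNA to DNA barcode read ratio; higher means stronger binding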
T1 chain: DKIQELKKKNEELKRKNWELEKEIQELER

[2] = target: T2, 4H492-bH; assay: two-hybrid library CCNG1;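 further: natural log of median RNA to DNA barcode read ratio; higher means stronger binding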
T2 chain: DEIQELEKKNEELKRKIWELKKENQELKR

[3] = target: T3, 4H40-bH; assay: two-hybrid library CCNG1;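 further: natural log of median RNA to DNA barcode read ratio; higher means stronger binding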
T3 chain: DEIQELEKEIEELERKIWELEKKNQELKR

[4] = target: T4, 4H3277-bH; assay: two-hybrid library CCNG1;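 further: natural log of median RNA to DNA barcode read ratio; higher means stronger binding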
T4 chain: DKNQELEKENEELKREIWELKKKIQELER

[5] = target: T5, 4H348-bH; assay: two-hybrid library CCNG1
T5 chain: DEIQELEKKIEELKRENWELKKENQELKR

[6] = target: T6, 4H319-bH; assay: two-hybrid library CCNG1
T6 chain: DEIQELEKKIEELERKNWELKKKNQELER

[7] = target: T7, 4H741-bH; assay: two-hybrid library CCNG1
T7 chain: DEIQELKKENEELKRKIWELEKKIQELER

[8] = target: T8, 4H477-bH; assay: two-hybrid library CCNG1
T8 chain: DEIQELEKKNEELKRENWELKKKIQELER

[9] = target: T9, 4H2915-bH; assay: two-hybrid library CCNG1
T9 chain: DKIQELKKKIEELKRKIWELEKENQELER

[10] = target: T10, P9A; assay: two-hybrid library CCNG1
T10 chain: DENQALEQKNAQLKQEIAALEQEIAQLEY

[11] = target: T11, P9SHb; assay: two-hybrid library CCNG1
T11 chain: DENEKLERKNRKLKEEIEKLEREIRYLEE

[12] = target: T12, 4H4038-AA; assay: two-hybrid library CCmax; settings: mean of both orientations
T12 chain: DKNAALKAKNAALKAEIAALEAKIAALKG

[13] = target: GCN2_T; assay: two-hybrid library CCmax
[14] = target: T13, 4H3587-AA; assay: two-hybrid library CCmax
T13 chain: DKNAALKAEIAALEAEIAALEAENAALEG

[15] = target: T14, 4H3625-AA; assay: two-hybrid library CCmax; settings: mean of both orientations
T14 chain: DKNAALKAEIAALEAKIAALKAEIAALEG

[16] = target: T15, 4H43-AA; assay: two-hybrid library CCmax; settings: mean of both orientations
T15 chain: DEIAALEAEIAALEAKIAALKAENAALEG

[17] = target: T16, 4H384-AA; assay: two-hybrid library CCmax; settings: mean of both orientations
T16 chain: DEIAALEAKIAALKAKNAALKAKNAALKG

[18] = target: T17, 4H_BCR; assay: two-hybrid library CCmax
T17 chain: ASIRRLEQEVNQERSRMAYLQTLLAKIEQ

[19] = target: T18, 4H451-AA; assay: two-hybrid library CCmax; settings: mean of both orientations
T18 chain: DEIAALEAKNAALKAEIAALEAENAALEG

[20] = target: T19, 4H3590-AA; assay: two-hybrid library CCmax; settings: mean of both orientations
T19 chain: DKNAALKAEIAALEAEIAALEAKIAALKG

[21] = target: T20, O11-AA; assay: two-hybrid library CCmax; settings: mean of both orientations
T20 chain: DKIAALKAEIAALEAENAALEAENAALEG

[22] = target: T21, O13-AA; assay: two-hybrid library CCmax; settings: mean of both orientations
T21 chain: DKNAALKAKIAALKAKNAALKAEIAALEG

[23] = target: T22, 4H510-AA; assay: two-hybrid library CCmax; settings: mean of both orientations
T22 chain: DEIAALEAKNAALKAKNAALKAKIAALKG

[24] = target: T23, O14-AA; assay: two-hybrid library CCmax; settings: mean of both orientations
T23 chain: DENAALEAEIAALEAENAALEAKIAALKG

[25] = target: 4H_GCN4; assay: two-hybrid library CCmax
4H_GCN4, sequence (chain, as listed by the source): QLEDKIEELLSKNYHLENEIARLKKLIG

[26] = target: T24, 4H3905-AA; assay: two-hybrid library CCmax; settings: mean of both orientations
T24 chain: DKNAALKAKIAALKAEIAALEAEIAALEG

[27] = target: T25, 4H_APH; assay: two-hybrid library CCmax
T25 chain: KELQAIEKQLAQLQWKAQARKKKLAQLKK

[28] = target: T26, 4H327-AA; assay: two-hybrid library CCmax
T26 chain: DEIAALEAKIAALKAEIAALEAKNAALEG

[29] = target: T27, 4H3605-AA; assay: two-hybrid library CCmax; settings: mean of both orientations
T27 chain: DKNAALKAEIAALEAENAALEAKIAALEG

[30] = target: T28, 4H369-AA; assay: two-hybrid library CCmax; settings: mean of both orientations
T28 chain: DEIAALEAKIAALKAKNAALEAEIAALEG

[31] = target: T29, 4H2726-AA; assay: two-hybrid library CCmax
T29 chain: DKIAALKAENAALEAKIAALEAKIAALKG

[32] = target: T30, 4H2935-AA; assay: two-hybrid library CCmax; settings: mean of both orientations
T30 chain: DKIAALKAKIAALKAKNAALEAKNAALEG

[33] = target: T31, 4H662-AA; assay: two-hybrid library CCmax; settings: mean of both orientations
T31 chain: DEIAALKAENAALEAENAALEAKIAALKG

[34] = target: T32, 4H481-AA; assay: two-hybrid library CCmax; settings: mean of both orientations
T32 chain: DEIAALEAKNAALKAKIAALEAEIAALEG

[35] = target: T33, 4H4033-AA; assay: two-hybrid library CCmax; settings: mean of both orientations
T33 chain: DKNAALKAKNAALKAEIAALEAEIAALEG

[36] = target: T34, 4H3922-AA; assay: two-hybrid library CCmax; settings: mean of both orientations
T34 chain: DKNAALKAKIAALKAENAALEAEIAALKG

[37] = target: T35, 4H55-AA; assay: two-hybrid library CCmax; settings: mean of both orientations
T35 chain: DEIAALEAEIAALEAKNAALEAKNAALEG

[38] = target: T36, 4H3664-AA; assay: two-hybrid library CCmax; settings: mean of both orientations
T36 chain: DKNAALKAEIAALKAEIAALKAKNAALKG

[39] = target: T37, 4H2915-bN; assay: two-hybrid library CCNG1
T37 chain: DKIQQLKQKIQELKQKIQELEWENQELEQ

[40] = target: T38, 4H477-bN; assay: two-hybrid library CCNG1
T38 chain: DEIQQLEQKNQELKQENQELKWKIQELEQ

[41] = target: T39, 4H348-bN; assay: two-hybrid library CCNG1
T39 chain: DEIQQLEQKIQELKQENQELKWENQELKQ

[42] = target: T40, 4H3277-bN; assay: two-hybrid library CCNG1
T40 chain: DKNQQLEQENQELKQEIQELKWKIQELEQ

[43] = target: T41, 4H319-bN; assay: two-hybrid library CCNG1
T41 chain: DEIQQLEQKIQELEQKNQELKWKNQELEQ

[44] = target: T42, 4H3057-bN; assay: two-hybrid library CCNG1
T42 chain: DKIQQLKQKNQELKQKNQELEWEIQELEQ

[45] = target: T43, 4H2839-bN; assay: two-hybrid library CCNG1
T43 chain: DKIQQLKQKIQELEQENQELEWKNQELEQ

[46] = target: T44, 4H741-bN; assay: two-hybrid library CCNG1
T44 chain: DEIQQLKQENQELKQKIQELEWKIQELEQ

[47] = target: T45, 4H40-bN; assay: two-hybrid library CCNG1
T45 chain: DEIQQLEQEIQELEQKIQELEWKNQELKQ

[48] = target: T46, 4H492-bN; assay: two-hybrid library CCNG1
T46 chain: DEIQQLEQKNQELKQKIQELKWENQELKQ

interaction score [1]: -0.637 | interaction score [2]: -1.59 | interaction score [3]: -1.4 | interaction score [4]: -1.15 | interaction score [5]: -0.507 | interaction score [6]: -1.33 | interaction score [7]: -0.324 | interaction score [8]: -2.15 | interaction score [9]: 0.772
B1: 4H2915-bH (peptide)
chain: DKIQELKKKIEELKRKIWELEKENQELER

interaction score [10]: -1.28
B2: P9A (peptide)
chain: DENQALEQKNAQLKQEIAALEQEIAQLEY

interaction score [11]: -0.553
B3: P9SHb (peptide)
chain: DENEKLERKNRKLKEEIEKLEREIRYLEE

interaction score [12]: -1.05 | interaction score [13]: -2.29 | interaction score [14]: -2.04 | interaction score [15]: -0.634 | interaction score [16]: -0.335 | interaction score [17]: 1.5 | interaction score [18]: -2.15 | interaction score [19]: -1.79 | interaction score [20]: -0.934 | interaction score [21]: -1.13 | interaction score [22]: 0.274 | interaction score [23]: -0.509 | interaction score [24]: -1.35 | interaction score [25]: -1.87 | interaction score [26]: -0.0465 | interaction score [27]: -1.77
B4: 4H3587-AA (peptide)
chain: DKNAALKAEIAALEAEIAALEAENAALEG

interaction score [28]: 0.992 | interaction score [15]: -0.165 | interaction score [29]: -0.283 | interaction score [30]: 1.68 | interaction score [31]: 1.36 | interaction score [32]: -1.45 | interaction score [33]: -0.732 | interaction score [34]: 1.94 | interaction score [35]: 2.08 | interaction score [36]: -1.41 | interaction score [37]: -1.14 | interaction score [38]: -1.05
B5: 4H2726-AA (peptide)
chain: DKIAALKAENAALEAKIAALEAKIAALKG

interaction score [39]: 0.377 | interaction score [40]: -1.55 | interaction score [41]: -0.511 | interaction score [42]: -0.558 | interaction score [43]: 1.51 | interaction score [44]: -0.124 | interaction score [45]: -0.536 | interaction score [46]: -1.58 | interaction score [47]: -0.765 | interaction score [48]: -0.542
B6: 4H2839-bN (peptide)
chain: DKIQQLKQKIQELEQENQELEWKNQELEQ
